In the supplement of paper PMC10567573:

B1: OAS1 (parent)
chain: YIGTHEYPHFSHRPSTLQAASTPQ

Variants of: B1
Assay: protein stability index of a GFP-peptide fusion (GPS, HEK-293T) (PSI 1-6); higher = more stable
Settings: c terminus: a fixed tail appended
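Also: lentivirally expressed fusions sorted by FACS into six bins by GFP to DsRed ratio, PSI derived from sequencing read proportions per bin multiplied by bin number.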

First: YIGTHEYLHFSHRPSTLQAASTPQ [P8L]
Second: YIGTHEYQHFSHRPSTLQAASTPQ [P8Q]
The protein stability index of the first is lower: 1.91 for the first, 1.95 for the second.

First: YIGTHEYMHFSHRPSTLQAASTPQ [P8M]
Second: YIGTHEYIHFSHRPSTLQAASTPQ [P8I]
The protein stability index of the first is lower: 1.91 for the first, 2.02 for the second.

Going from YIGTHEYHHFSHRPSTLQAASTPQ [P8H] to YIGTHEYKHFSHRPSTLQAASTPQ [P8K], the protein stability index falls from 2.45 to 2.08.

First: YIGTHEYRHFSHRPSTLQAASTPQ [P8R]
Second: YIGTHEYCHFSHRPSTLQAASTPQ [P8C]
The protein stability index of the first is lower: 1.63 for the first, 2.12 for the second.

First: YIGTHEYFHFSHRPSTLQAASTPQ [P8F]
Second: YIGTHEYTHFSHRPSTLQAASTPQ [P8T]
The protein stability index of the first is higher: 2.44 for the first, 1.54 for the second.

First: YIGTHEYAHFSHRPSTLQAASTPQ [P8A]
Second: YIGTHEYSHFSHRPSTLQAASTPQ [P8S]
The protein stability index of the first is lower: 1.74 for the first, 1.95 for the second.

First: YIGTHEYGHFSHRPSTLQAASTPQ [P8G]
Second: YIGTHEYYHFSHRPSTLQAASTPQ [P8Y]
The protein stability index of the first is lower: 1.39 for the first, 1.92 for the second.

Compared with YIGTHEYWHFSHRPSTLQAASTPQ [P8W], YIGTHEYEHFSHRPSTLQAASTPQ [P8E] is higher in protein stability index: 1.74 for the first, 2.79 for the second.

Compared with YIGTHEYVHFSHRPSTLQAASTPQ [P8V], YIGTHEYNHFSHRPSTLQAASTPQ [P8N] is higher in protein stability index: 2 for the first, 2.05 for the second.

Going from YIGTHEYDHFSHRPSTLQAASTPQ [P8D] to YIGTYEYPHFSHRPSTLQAASTPQ [H5Y], the protein stability index falls from 2.35 to 1.83.

First: YIGTHWYPHFSHRPSTLQAASTPQ [E6W]
Second: YIGTHVYPHFSHRPSTLQAASTPQ [E6V]
The protein stability index of the first is higher: 3.29 for the first, 1.88 for the second.

Compared with YIGTHRYPHFSHRPSTLQAASTPQ [E6R], YIGTHSYPHFSHRPSTLQAASTPQ [E6S] is higher in protein stability index: 1.61 for the first, 1.79 for the second.

Going from YIGTHTYPHFSHRPSTLQAASTPQ [E6T] to YIGTHNYPHFSHRPSTLQAASTPQ [E6N], the protein stability index rises from 2.14 to 2.18.

First: YIGTHYYPHFSHRPSTLQAASTPQ [E6Y]
Second: YIGTHKYPHFSHRPSTLQAASTPQ [E6K]
The protein stability index of the first is lower: 1.89 for the first, 2.06 for the second.

Going from YIGTHCYPHFSHRPSTLQAASTPQ [E6C] to YIGTHIYPHFSHRPSTLQAASTPQ [E6I], the protein stability index falls from 2.26 to 1.75.

Going from YIGTHHYPHFSHRPSTLQAASTPQ [E6H] to YIGTHPYPHFSHRPSTLQAASTPQ [E6P], the protein stability index falls from 2.32 to 1.5.

Compared with YIGTHDYPHFSHRPSTLQAASTPQ [E6D], YIGTHLYPHFSHRPSTLQAASTPQ [E6L] is higher in protein stability index: 1.92 for the first, 2.99 for the second.

First: YIGTHGYPHFSHRPSTLQAASTPQ [E6G]
Second: YIGTHMYPHFSHRPSTLQAASTPQ [E6M]
The protein stability index of the first is higher: 1.81 for the first, 1.46 for the second.

First: YIGTHQYPHFSHRPSTLQAASTPQ [E6Q]
Second: YIGTHAYPHFSHRPSTLQAASTPQ [E6A]
The protein stability index of the first is lower: 1.68 for the first, 2 for the second.

Compared with YIGTHFYPHFSHRPSTLQAASTPQ [E6F], YIGTHEYPHFSHYPSTLQAASTPQ [R13Y] is lower in protein stability index: 3.8 for the first, 2.09 for the second.

YIGTHEYPHFSHGPSTLQAASTPQ [R13G] and YIGTHEYPHFSHIPSTLQAASTPQ [R13I] are the same in protein stability index: 1.92 for the first, 1.92 for the second.

First: YIGTHEYPHFSHDPSTLQAASTPQ [R13D]
Second: YIGTHEYPHFSHMPSTLQAASTPQ [R13M]
The protein stability index of the first is higher: 2.52 for the first, 2.19 for the second.

Compared with YIGTHEYPHFSHCPSTLQAASTPQ [R13C], YIGTHEYPHFSHTPSTLQAASTPQ [R13T] is higher in protein stability index: 1.26 for the first, 1.79 for the second.

First: YIGTHEYPHFSHFPSTLQAASTPQ [R13F]
Second: YIGTHEYPHFSHKPSTLQAASTPQ [R13K]
The protein stability index of the first is lower: 1.33 for the first, 2.12 for the second.

First: YIGTHEYPHFSHLPSTLQAASTPQ [R13L]
Second: YIGTHEYPHFSHVPSTLQAASTPQ [R13V]
The protein stability index of the first is lower: 1.66 for the first, 2.67 for the second.

First: YIGTHEYPHFSHEPSTLQAASTPQ [R13E]
Second: YIGTHEYPHFSHSPSTLQAASTPQ [R13S]
The protein stability index of the first is higher: 2.19 for the first, 2.18 for the second.

First: YIGTHEYPHFSHHPSTLQAASTPQ [R13H]
Second: YIGTHEYPHFSHNPSTLQAASTPQ [R13N]
The protein stability index of the first is higher: 2.29 for the first, 1.8 for the second.

Compared with YIGTHEYPHFSHQPSTLQAASTPQ [R13Q], YIGTHEYPHFSHWPSTLQAASTPQ [R13W] is higher in protein stability index: 1.99 for the first, 3.13 for the second.

Compared with YIGTHEYPHFSHAPSTLQAASTPQ [R13A], YIGTHEYPHFIHRPSTLQAASTPQ [S11I] is higher in protein stability index: 2.58 for the first, 2.71 for the second.

First: YIGTHEYPHFKHRPSTLQAASTPQ [S11K]
Second: YIGTHEYPHFDHRPSTLQAASTPQ [S11D]
The protein stability index of the first is lower: 1.92 for the first, 2.64 for the second.

Compared with YIGTHEYPHFRHRPSTLQAASTPQ [S11R], YIGTHEYPHFEHRPSTLQAASTPQ [S11E] is higher in protein stability index: 2.09 for the first, 2.56 for the second.

Going from YIGTHEYPHFGHRPSTLQAASTPQ [S11G] to YIGTHEYPHFMHRPSTLQAASTPQ [S11M], the protein stability index falls from 2.14 to 1.93.

Compared with YIGTHEYPHFYHRPSTLQAASTPQ [S11Y], YIGTHEYPHFHHRPSTLQAASTPQ [S11H] is lower in protein stability index: 3.04 for the first, 1.98 for the second.

Compared with YIGTHEYPHFVHRPSTLQAASTPQ [S11V], YIGTHEYPHFLHRPSTLQAASTPQ [S11L] is lower in protein stability index: 2.85 for the first, 2.54 for the second.

First: YIGTHEYPHFNHRPSTLQAASTPQ [S11N]
Second: YIGTHEYPHFTHRPSTLQAASTPQ [S11T]
The protein stability index of the first is higher: 2.31 for the first, 1.76 for the second.

Compared with YIGTHEYPHFCHRPSTLQAASTPQ [S11C], YIGTHEYPHFAHRPSTLQAASTPQ [S11A] is lower in protein stability index: 2.65 for the first, 1.96 for the second.

Going from YIGTHEYPHFQHRPSTLQAASTPQ [S11Q] to YIGTHEYPHFFHRPSTLQAASTPQ [S11F], the protein stability index rises from 2.71 to 3.55.

Going from YIGTHEYPHFWHRPSTLQAASTPQ [S11W] to YIGTHEYPHFPHRPSTLQAASTPQ [S11P], the protein stability index falls from 2.76 to 2.44.

Going from YIGTHEYPHFSHRPWTLQAASTPQ [S15W] to YIGTHEYPHFSHRPFTLQAASTPQ [S15F], the protein stability index falls from 3.2 to 2.67.

Going from YIGTHEYPHFSHRPRTLQAASTPQ [S15R] to YIGTHEYPHFSHRPCTLQAASTPQ [S15C], the protein stability index falls from 1.96 to 1.61.

Going from YIGTHEYPHFSHRPHTLQAASTPQ [S15H] to YIGTHEYPHFSHRPQTLQAASTPQ [S15Q], the protein stability index rises from 1.82 to 1.99.

Compared with YIGTHEYPHFSHRPPTLQAASTPQ [S15P], YIGTHEYPHFSHRPATLQAASTPQ [S15A] is higher in protein stability index: 1.62 for the first, 2.13 for the second.

Going from YIGTHEYPHFSHRPVTLQAASTPQ [S15V] to YIGTHEYPHFSHRPMTLQAASTPQ [S15M], the protein stability index falls from 2 to 1.6.

Going from YIGTHEYPHFSHRPDTLQAASTPQ [S15D] to YIGTHEYPHFSHRPYTLQAASTPQ [S15Y], the protein stability index falls from 2.1 to 1.79.

First: YIGTHEYPHFSHRPNTLQAASTPQ [S15N]
Second: YIGTHEYPHFSHRPITLQAASTPQ [S15I]
The protein stability index of the first is higher: 2.24 for the first, 1.85 for the second.

Compared with YIGTHEYPHFSHRPGTLQAASTPQ [S15G], YIGTHEYPHFSHRPETLQAASTPQ [S15E] is higher in protein stability index: 1.79 for the first, 2.05 for the second.

Going from YIGTHEYPHFSHRPLTLQAASTPQ [S15L] to YIGTHEYPHFSHRPKTLQAASTPQ [S15K], the protein stability index rises from 1.69 to 1.82.
